In patent US20150299298A1 (TRELLIS BIOSCIENCE, published 2015):
Where two headings read alike, the source gives them in different places.

Columns and labels:
[1] = target: T1, IHF from Staphylococcus aureus (Staphylococcus aureus, UniProt Q5HFV0 1-90); assay: ELISA on IHF from S. aureus (IHF-Sa ELISA), OD 450 nm against [mAb] nM
T1 construct: mature; not shown: poly-histidine tag
T1 sequence: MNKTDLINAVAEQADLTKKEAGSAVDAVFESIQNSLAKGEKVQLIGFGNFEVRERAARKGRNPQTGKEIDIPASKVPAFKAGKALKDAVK

[2] = target: T1, IHF from Staphylococcus aureus; assay: as above; remark: listed apart in the source
[3] = target: T2, IHF from Klebsiella pneumoniae (Klebsiella pneumoniae, UniProt A6TAI1 1-99); assay: ELISA at pH 2.5
T2 construct: also called IHF (Kp); K. pneumoniae
T2 sequence: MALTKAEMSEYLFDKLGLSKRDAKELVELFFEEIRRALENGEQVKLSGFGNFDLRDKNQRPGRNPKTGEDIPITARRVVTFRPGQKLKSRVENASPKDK

[4] = target: T3, IHF from Pseudomonas aeruginosa (Pseudomonas aeruginosa, UniProt Q51472 2-100); assay: ELISA at pH 2.5
T3 construct: mature; also called IHF (Pa); P. aeruginosa; not shown: poly-histidine tag
T3 sequence: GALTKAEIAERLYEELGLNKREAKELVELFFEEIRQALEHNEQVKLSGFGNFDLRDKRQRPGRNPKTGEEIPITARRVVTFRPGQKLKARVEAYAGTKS

[5] = target: T1, IHF from Staphylococcus aureus; assay: ELISA at pH 2.5
[6] = target: T2, IHF from Klebsiella pneumoniae; assay: ELISA at pH 3.5
[7] = target: T3, IHF from Pseudomonas aeruginosa; assay: ELISA at pH 3.5
[8] = target: T1, IHF from Staphylococcus aureus; assay: ELISA at pH 3.5
[9] = target: T2, IHF from Klebsiella pneumoniae; assay: ELISA at pH 4.5
[10] = target: T3, IHF from Pseudomonas aeruginosa; assay: ELISA at pH 4.5
[11] = target: T1, IHF from Staphylococcus aureus; assay: ELISA at pH 4.5
[12] = target: T2, IHF from Klebsiella pneumoniae; assay: ELISA at pH 5.5
[13] = target: T3, IHF from Pseudomonas aeruginosa; assay: ELISA at pH 5.5
[14] = target: T1, IHF from Staphylococcus aureus; assay: ELISA at pH 5.5
[15] = target: T2, IHF from Klebsiella pneumoniae; assay: ELISA at pH 6.5
[16] = target: T3, IHF from Pseudomonas aeruginosa; assay: ELISA at pH 6.5
[17] = target: T1, IHF from Staphylococcus aureus; assay: ELISA at pH 6.5
[18] = target: T2, IHF from Klebsiella pneumoniae; assay: ELISA at pH 7.5
[19] = target: T3, IHF from Pseudomonas aeruginosa; assay: ELISA at pH 7.5
[20] = target: T1, IHF from Staphylococcus aureus; assay: ELISA at pH 7.5
[21] = target: IHF from Staphylococcus aureus (Staphylococcus aureus) (UniProt Q5HFV0); assay: ELISA

B1: TRL1337 (antibody, V domains shown)
VH: QVQLLESGPGLVKPSETPSLTCTVSGGSIRSYYWSWIRQPPGKGLEWIGYIYYSGSTNYNPSLKSRVTISVDMSKNQFSLKLSSVTAADTAMYYCARVYGGSGSYDFDYWGQGTLVTVSS
VL: DIVLTQSPSASGSPGQSVTISCTGTSSDVGGYNYVSWYQQLPGKAPKLMIYEVTKRPSGVPDRFSGSKSGNTASLTVSGLQAEDEADYYCSSFAGSNNHVVFGGGTKLTVL
Kd [1]: 6 nM | Kd [2]: 6 nM

B2: TRL1068 (antibody, V domains shown)
VH: QVQLVESGPGLVKPSETLSLTCRVSGDSNRPSYWSWIRQAPGKAMEWIGYVYDSGVTIYNPSLKGRVTISLDTSKTRFSLKLTSVIAADTAVYYCARERFDRTSYKSWWGQGTQVTVSS
VL: DIVLTQAPGTLSLSPGDRATLSCRASQRLGGTSLAWYQHRSGQAPRLILYGTSNRATDTPDRFSGSGSGTDFVLTISSLEPEDFAVYYCQQYGSPPYTFGQGTTLDIK
Affinity [3]: 2.6 nM | Affinity [4]: 2.1 nM | Affinity [5]: 3.5 nM | Affinity [6]: 3 nM | Affinity [7]: 0.26 nM | Affinity [8]: 0.36 nM | Affinity [9]: 0.05 nM | Affinity [10]: 9 pM | Affinity [11]: 0.012 nM | Affinity [12]: 9 pM | Affinity [13]: 6 pM | Affinity [14]: 0.012 nM | Affinity [15]: 6 pM | Affinity [16]: 5 pM | Affinity [17]: 0.012 nM | Affinity [18]: 6 pM | Affinity [19]: 5 pM | Affinity [20]: 0.01 nM

B3: TRL1338 (antibody, V domains shown)
VH: QLTLRESGPTLVKPTQTLTLTCTFSGFSLSTNGVGVGWIRQPPGKALEWLAIIYWDDDKRYSPSLKSRLTITKDTSKNQVVLTLTNMDPVDTGTYYCAHILGASNYWTGYLRYYFDYWGQGTLVTVST
VL: DIEMTQSPSVSVSPGQTARITCSGEPLAKQYAYWYQQKSGQAPVVVIYKDTERPSGIPERFSGSSSGTTVTLTISGVQAEDEADYHCESGDSSGTYPVFGGGTKLTVL
Kd [1]: 42 nM | Kd [2]: 42 nM

B4: TRL1230 (antibody, V domains shown)
VH: QVQLVQSGGGLVKPGGSLRLSCGASGFNLSSYSMNWVRQAPGKGLEWVSSISSRSSYIYYADSVQGRFTISRDNAKNSLYLQMNSLRAEDTAIYYCARVSPSTYYYYGMDVWGQGTTVTVSS
VL: DIVLTQPSSVSVSPGQTARITCSGDELPKQYAYWYQQKPGQAPVLVIYKDNERPSGIPERFSGSSSGTTVTLTISGVQAEDEADYYCQSADSSGTYVVFGGGTKLTVL
OD [21]: 0.1 OD
